According to patent US20240245796A1 (PROFOUNDBIO US, published 2024):

How the values were obtained:
[1] = biological target: T1, human FOLR1 extracellular domain linked to His tag (human, UniProt P15328 25-233, limits assumed); assay: BLI, global 1:1 fit (125 nM row)
T1 construct: extracellular domain; It may be the same product as m13; also called Hu-FRα; Hu-Ag; not shown: His tag

[2] = biological target: T2, human FOLR2 extracellular domain linked to His tag (human, UniProt P14207 17-230, limits assumed); assay: BLI, global 1:1 fit (125 nM row)
T2 construct: extracellular domain; Antigen in solution in BLI; also called Hu-FRb; not shown: His tag
T2 sequence (P14207 17-230 limits assumed): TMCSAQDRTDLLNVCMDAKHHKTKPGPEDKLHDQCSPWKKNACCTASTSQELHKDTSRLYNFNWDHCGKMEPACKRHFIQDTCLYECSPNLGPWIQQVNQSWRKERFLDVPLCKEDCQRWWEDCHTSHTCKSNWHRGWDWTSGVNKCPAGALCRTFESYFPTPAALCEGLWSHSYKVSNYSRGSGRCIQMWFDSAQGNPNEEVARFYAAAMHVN

[3] = biological target: T1, human FOLR1 extracellular domain linked …; assay: BLI, global 1:1 fit (250 nM row)
[4] = biological target: T2, human FOLR2 extracellular domain linked …; assay: BLI, global 1:1 fit (250 nM row)
[5] = biological target: T1, human FOLR1 extracellular domain linked …; assay: BLI, global 1:1 fit (31.3 nM row)
[6] = biological target: T3, cynomolgus monkey FOLR1 extracellular domain linked to His tag (cynomolgus monkey, UniProt A0A2K5U044 25-233); assay: BLI, global 1:1 fit (31.3 nM row)
T3 construct: extracellular domain; Antigen in solution in BLI; It may be the same product as m14; also called Cyno-Ag; not shown: His tag
T3 sequence (A0A2K5U044 entry or part of it): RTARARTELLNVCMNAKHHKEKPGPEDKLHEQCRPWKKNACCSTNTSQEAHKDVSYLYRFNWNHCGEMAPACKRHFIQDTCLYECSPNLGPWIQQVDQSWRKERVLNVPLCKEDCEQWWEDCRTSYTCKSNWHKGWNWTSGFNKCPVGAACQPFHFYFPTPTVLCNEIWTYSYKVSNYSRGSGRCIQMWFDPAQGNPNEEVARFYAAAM

[7] = biological target: T1, human FOLR1 extracellular domain linked …; assay: BLI, Ag 250 nM over Ab on anti-hIgG Fc tip
[8] = biological target: T2, human FOLR2 extracellular domain linked …; assay: BLI, Ag 250 nM over Ab on anti-hIgG Fc tip
[9] = biological target: T1, human FOLR1 extracellular domain linked …; assay: BLI, Ag 125 nM over Ab on anti-hIgG Fc tip
[10] = biological target: T3, cynomolgus monkey FOLR1 extracellular …; assay: BLI, Ag 125 nM over Ab on anti-hIgG Fc tip
[11] = biological target: T1, human FOLR1 extracellular domain linked …; assay: BLI, Ag 250 nM over Ab on anti-hIgG Fc tip; remark: listed apart in the source
[12] = biological target: T3, cynomolgus monkey FOLR1 extracellular …; assay: BLI, Ag 250 nM over Ab on anti-hIgG Fc tip
[13] = biological target: T1, human FOLR1 extracellular domain linked …; assay: BLI, Ag 500 nM over Ab on anti-hIgG Fc tip
[14] = biological target: T3, cynomolgus monkey FOLR1 extracellular …; assay: BLI, Ag 500 nM over Ab on anti-hIgG Fc tip
[15] = biological target: T4, mouse FOLR1 extracellular domain linked to His tag (mouse, UniProt P35846 25-232, limits assumed); assay: BLI, Ag 500 nM over Ab on anti-hIgG Fc tip
T4 construct: extracellular domain; Antigen in solution in BLI; also called Mouse-Ag; not shown: His tag
T4 sequence (P35846 25-232 limits assumed): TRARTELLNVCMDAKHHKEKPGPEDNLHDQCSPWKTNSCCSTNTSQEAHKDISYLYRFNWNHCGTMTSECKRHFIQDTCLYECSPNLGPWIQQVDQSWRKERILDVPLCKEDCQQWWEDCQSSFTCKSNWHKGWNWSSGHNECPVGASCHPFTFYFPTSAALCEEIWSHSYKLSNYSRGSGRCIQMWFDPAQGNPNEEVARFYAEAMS

[16] = biological target: T1, human FOLR1 extracellular domain linked …; assay: BLI, Ag 15.6 nM over Ab on anti-hIgG Fc tip
[17] = biological target: T3, cynomolgus monkey FOLR1 extracellular …; assay: BLI, Ag 15.6 nM over Ab on anti-hIgG Fc tip
[18] = biological target: T5, rat FOLR1 extracellular domain linked to His tag (rat); assay: BLI, Ag 7.82 nM; * = below range of quantification
T5 construct: extracellular domain; Antigen in solution in BLI; also called Rat-Ag

[19] = biological target: T5, rat FOLR1 extracellular domain linked …; assay: BLI, global 1:1 fit (250 nM row); all responses below quantification
[20] = biological target: T6, human FOLR3 extracellular domain linked to His tag (human, UniProt P41439 23-245, limits assumed); assay: BLI, global 1:1 fit (15.6 nM row); all responses below quantification
T6 construct: extracellular domain; Antigen in solution in BLI; also called Hu-FRg; not shown: His tag
T6 sequence (P41439 23-245 limits assumed): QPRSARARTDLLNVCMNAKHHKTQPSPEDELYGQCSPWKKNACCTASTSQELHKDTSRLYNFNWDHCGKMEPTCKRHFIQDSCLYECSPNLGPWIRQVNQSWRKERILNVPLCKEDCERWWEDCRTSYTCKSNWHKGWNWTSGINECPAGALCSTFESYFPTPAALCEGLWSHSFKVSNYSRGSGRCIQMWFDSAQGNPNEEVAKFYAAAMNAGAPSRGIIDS

[21] = biological target: T4, mouse FOLR1 extracellular domain linked …; assay: BLI, global 1:1 fit (250 nM row); only the 500 nM response quantifiable
[22] = biological target: T4, mouse FOLR1 extracellular domain linked …; assay: BLI, global 1:1 fit (500 nM row); only the 500 nM response quantifiable
[23] = biological target: T4, mouse FOLR1 extracellular domain linked …; assay: BLI, global 1:1 fit (7.82 nM row); only the 500 nM response quantifiable

T1 sequence (P15328 25-233 limits assumed): as the sequence (A0A2K5U044 entry or part of it) above, with T2I, R4W, K37R, P146A, Y171H counted along it

B1: F131 (antibody, V domains shown)
VH: EVQLLESGGGVVQPGRSLRLSCAASGFTFSSYGMHWVRQAPGKGLEWVAVISYDGSNKYYADSVKGRFTISRANSKNTLYLQMNSLRAEDTAVYYCARPRAYYGAYGSSFDYWGQGTQVTVSS
VL: EIVMTQSPSSVSASVGDRVAITCRASQGISSWLAWYQQKPGKAPKLLIYAASSLQSGVPSRFSGSGSGTDFTLTISSLQPEDFATYYCQQSYSTPLTFGGGTKVDIK
notes: also called clone F131; F131 mAb
[1]
  Kd: 5.3 nM
  koff: 0.0012 s⁻¹
  kon: 226000 M⁻¹ s⁻¹
[2]
  Kd: 142 nM
  koff: 0.0784 s⁻¹
  kon: 552000 M⁻¹ s⁻¹
[3]
  Kd: 5.3 nM
  koff: 0.0012 s⁻¹
  kon: 226000 M⁻¹ s⁻¹
[4]
  Kd: 142 nM
  koff: 0.0784 s⁻¹
  kon: 552000 M⁻¹ s⁻¹
[5]
  Kd: 1.53 nM
  koff: 0.000338 s⁻¹
  kon: 221000 M⁻¹ s⁻¹
[6]
  Kd: 8.15 nM
  koff: 0.00157 s⁻¹
  kon: 193000 M⁻¹ s⁻¹
[7]
  Response: 0.178
[8]
  Response: 0.0207
[9]
  Response: 0.146
[10]
  Response: 0.177
[11]
  Response: 0.162
[12]
  Response: 0.209
[13]
  Response: 0.181
[14]
  Response: 0.219
[15]
  Response: 0.0167
[16]
  Response: 0.0503
[17]
  Response: 0.0485
[18]
  Response: -0.00563
[19]
  koff: 1.03 s⁻¹
  kon: 5490 M⁻¹ s⁻¹
[20]
  koff: 0.217 s⁻¹
  kon: 1660 M⁻¹ s⁻¹
[21]
  Kd: 2960 nM
  koff: 0.301 s⁻¹
  kon: 102000 M⁻¹ s⁻¹
[22]
  koff: 0.301 s⁻¹
  kon: 102000 M⁻¹ s⁻¹
[23]
  Kd: 2960 nM
  koff: 0.301 s⁻¹
  kon: 102000 M⁻¹ s⁻¹

B2: F131-LD038 (antibody, V domains shown)
VH: EVQLLESGGGVVQPGRSLRLSCAASGFTFSSYGMHWVRQAPGKGLEWVAVISYDGSNKYYADSVKGRFTISRANSKNTLYLQMNSLRAEDTAVYYCARPRAYYGAYGSSFDYWGQGTQVTVSS
VL: EIVMTQSPSSVSASVGDRVAITCRASQGISSWLAWYQQKPGKAPKLLIYAASSLQSGVPSRFSGSGSGTDFTLTISSLQPEDFATYYCQQSYSTPLTFGGGTKVDIK
modifications: drug-linker LD038 (PB038, maleimide-PEG unit-Val-Cit-PAB-exatecan) on cysteines freed by TCEP reduction; positions not given
notes: Antibody-drug conjugate of F131 (IgG1) with LD038; also called anti-huFOLR-1 conjugate F131-LD038; F131-038
[1]
  Kd: 4.79 nM
  koff: 0.00121 s⁻¹
  kon: 252000 M⁻¹ s⁻¹
[2]
  Kd: 84.4 nM
  koff: 0.0813 s⁻¹
  kon: 963000 M⁻¹ s⁻¹
[3]
  Kd: 4.79 nM
  koff: 0.00121 s⁻¹
  kon: 252000 M⁻¹ s⁻¹
[4]
  Kd: 84.4 nM
  koff: 0.0813 s⁻¹
  kon: 963000 M⁻¹ s⁻¹
[5]
  Kd: 4.8 nM
  koff: 0.00107 s⁻¹
  kon: 224000 M⁻¹ s⁻¹
[6]
  Kd: 8.82 nM
  koff: 0.0016 s⁻¹
  kon: 181000 M⁻¹ s⁻¹
[7]
  Response: 0.201
[8]
  Response: 0.0243
[9]
  Response: 0.158
[10]
  Response: 0.152
[11]
  Response: 0.184
[12]
  Response: 0.18
[13]
  Response: 0.205
[14]
  Response: 0.186
[15]
  Response: 0.0125
[16]
  Response: 0.0447
[17]
  Response: 0.0384
[18]
  Response: -0.00438
[19]
  koff: 0.224 s⁻¹
[20]
  koff: 0.233 s⁻¹
[21]
  Kd: 2870 nM
  koff: 0.266 s⁻¹
  kon: 92600 M⁻¹ s⁻¹
[22]
  Kd: 2870 nM
  koff: 0.266 s⁻¹
  kon: 92600 M⁻¹ s⁻¹
[23]
  Kd: 2870 nM
  koff: 0.266 s⁻¹
  kon: 92600 M⁻¹ s⁻¹
